Experimental data published in patent publication US20200405820A1 (GENERAL HOSPITAL, published 2020).

Tests used:
[1] = biological target: T1, parathyroid hormone receptor 1 (PTHR1) in human osteoblast-derived SaOS-2 cells (human, UniProt Q03431 27-593); experiment: cell-based or functional assay
T1 sequence (looked up): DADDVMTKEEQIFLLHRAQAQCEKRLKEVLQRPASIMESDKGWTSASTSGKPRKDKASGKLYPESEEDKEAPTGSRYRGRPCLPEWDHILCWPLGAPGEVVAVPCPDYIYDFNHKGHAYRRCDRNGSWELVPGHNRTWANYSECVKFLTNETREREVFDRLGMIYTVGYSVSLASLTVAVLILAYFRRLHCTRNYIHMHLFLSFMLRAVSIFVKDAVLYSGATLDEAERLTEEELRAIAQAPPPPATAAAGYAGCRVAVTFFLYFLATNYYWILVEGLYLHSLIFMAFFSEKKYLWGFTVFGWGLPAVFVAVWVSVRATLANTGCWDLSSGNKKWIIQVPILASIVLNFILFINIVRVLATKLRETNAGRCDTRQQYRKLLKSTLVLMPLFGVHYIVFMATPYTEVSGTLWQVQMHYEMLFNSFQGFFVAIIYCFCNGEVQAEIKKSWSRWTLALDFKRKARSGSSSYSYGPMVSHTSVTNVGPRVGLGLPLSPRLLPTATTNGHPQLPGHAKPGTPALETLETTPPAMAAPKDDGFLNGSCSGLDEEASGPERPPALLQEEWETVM

[2] = biological target: T1, parathyroid hormone receptor 1 (PTHR1) …; experiment: cell-based or functional assay; remark: listed apart in the source

B1: Palm-PTH(1-34) (Ref. No. 2027) (peptide)
peptide: SVSEIQLMHNLGKHLNSMERVEWLRKKLQDVHNFEYEXEYE
modifications: (PEG)2 linker (-C(O)-CH2(OCH2CH2)2CH2CH2-NH-) between the C-terminal Phe of PTH(1-34) and the N-terminal Glu of the tag; palmitoyl on the side-chain nitrogen of the Lys of the tag EYEK(palm)EYE; C-terminal amide (-NH2)
Max %, cAMP signaling in SaOS2/glosensor (SGS-72) cells [1]: 85%
pEC50, cAMP signaling potency in SaOS2/glosensor (SGS-72) cells [1]: 9.81 log molar concentration (pEC50)
EC50, stimulation of cAMP formation in SaOS-2 cells [2]: ~0.6 nM
